Columns and labels:
Assay in all cases: SPR
huFcgRIIb = target: huFcgRIIb
huFcgRIIIA - 158V = target: huFcgRIIIA - 158V
muFcgRIIb = target: muFcgRIIb
muFcgRIII = target: muFcgRIII
huFcRI = target: huFcRI
muFcgRIV = target: muFcgRIV
muFcgRI = target: muFcgRI

Sequence of muFcgRIV (A0A0B4J1G0 21-203): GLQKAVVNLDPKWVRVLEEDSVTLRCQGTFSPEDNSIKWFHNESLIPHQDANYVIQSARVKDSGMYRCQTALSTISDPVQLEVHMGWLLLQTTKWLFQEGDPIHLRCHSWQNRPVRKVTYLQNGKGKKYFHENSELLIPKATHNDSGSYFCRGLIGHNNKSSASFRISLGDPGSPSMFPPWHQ

Row | Kd (huFcgRIIb) | Kd (huFcgRIIIA - 158V) | Kd (muFcgRIIb) | Kd (muFcgRIII) | Kd (huFcRI) | Kd (muFcgRIV) | Kd (muFcgRI) | Substance
1 | 14500 nM | 574 nM | 1470 nM | 6360 nM | 19 nM |  |  | Control
2 |  |  | 1240 nM | 3660 nM |  | 253 nM |  | Hu IgG1
3 |  |  | 1260 nM | 3960 nM |  | 43 nM | 397 nM | Hu IgG1 afuc
